Patent US9682130B2 (priority 2015, dated 2017)
Where “and” joins values, the source holds several entries; their conditions need not be identical. Identical values can stand only once.

How the values were obtained:
HIV-1 = conditions: final concentrations that are not cytotoxic; cited from earlier work
[1] = Eye irritation, Draize scale (MMTS), Ad5/NZW rabbit ocular model; assay type: in vivo; conditions: for Ocular irritation MMTS score, Day 3 / Ocular irritation MMTS score, Day 9 / Ocular irritation class, Day 3 / Ocular irritation class, Day 9: topical both eyes 8x daily
Experimental: To conduct this in vivo assay, 25 NZW rabbit were anesthetized using the general anesthesia ketamine and xylazine and the topical anesthesia proparacaine. Each rabbit was then topically inoculated with 50 μL of Adenovirus serotype Ad5 (3×10^7 pfu/mL) in both eyes after corneal epithelial scarification (12 cross-hatched strokes of a 25 sterile needle). Eyes were closed and gently rubbed for 5 seconds to ensure contact of the virus on all ocular surfaces. Inoculation of both eyes allowed for the reduction in the number of animals needed without jeopardizing statistical validity. […] All topical solutions (37 μL drops) were instilled with an electronic pipette (EDP; Rainin, Oakland, Calif.) set in the multi-dispense mode. Ocular swabbing to recover adenovirus from tear film and corneal and conjunctival surfaces, after topical anesthesia with proparacaine, was performed at least 1 hour after the final dose on days 0, 1, 3, 4, 5, 7, 9, 11, and 14 after inoculation. The ocular samples from each eye was placed individually into tubes containing 1 mL of medium and were frozen at −70° C. pending viral plaque assay.
The animals were assayed for eye irritation using a Draize scale for ocular lesions. Classification of eye irritation was evaluated for both eyes of each rabbit on day 3 and day 9 using the maximum mean total score (MMTS; Table 4). See, e.g., Kay and Calandra, Interpretation of Eye Irritation Tests, J. Soc. Cos. Chem. 13: 281-289 (1962), the content of which is hereby incorporated by reference in its entirety. The MMTS score used was as follows: 0.0-0.5, Non-Irritating (N); 0.6-2.5, Practically Non-Irritating (PN); 2.6-15.0, Minimally Irritating (M1); 15.1-25.0, Mildly Irritating (M2); 25.1-50.0, Moderately Irritating (M3); 50.1-80.0, Severely Irritating (S); 80.1-100.0, Extremely Irritating (E); and 100.1-110.0, Maximally Irritating (Mx).

A549 cells = assay: In vitro cytotoxicity, ALAMARBLUE fluorometric stain; assay type: cell-based; conditions: 2 days
Experimental: Ophthalmol. Vis. Sci. 50: 5295-5299 (2009), which is hereby incorporated by reference in its entirety.
To assess in vitro cytotoxicity, 96-well plates were seeded with A549 cells at 1×10^5 cells/mL and incubated overnight at 37° C. with 5% CO2. […] After removal of the tissue culture media, 100 μL of each dilution was added to 3 wells of a 96-well plate with 80% to 100% confluent cells. […] Each test and control treatment was incubated on the A549 monolayers for 2 days at 37° C. with 5% CO2. A 100 μL aliquot of the fluorometric stain was then added to each well, and the cells incubated for 1 hour at 37° C. with 5% CO2. The fluorometric stain (ALAMARBLUE®, Invitrogen, Carlsbad, Calif.) acts as a redox indicator that is reduced to a fluorescent form by metabolically active living cells. Fluorescence was then be read with a plate reader (Biotek Synergy 2; Biotek), with a 500/27-nm excitation filter and a 620/40-nm emission filter, at a sensitivity of 35.

B1: Ranpirnase (protein, UniProt P22069 1-104, looked up)
Protein P-30: QDWLTFQKKHITNTRDVDCDNIMSTNLFHCKDKNTFIYSRPEPVKAICKGIIASKNVLTTSEFYLSDCNVTSRPCKYKLKKSTNKFCVTCENQAPVHFVGVGSC
notes: amphibian ribonuclease originally isolated from oocytes and/or early embryos of Rana pipiens; pancreatic ribonuclease (RNase A) superfamily, about 12 kD
Inhibition of replication of HIV-1 (HIV-1): up to 99.9% | Eye irritation compared to saline and Cidofovir controls ([1]; 0.25 μM Ranpirnase): no eye irritation as compared to both the saline and Cidofovir controls | Ocular irritation MMTS score, Day 3 ([1]; 0.25 μM Ranpirnase (group 1C)): 7.5 | Ocular irritation MMTS score, Day 9 ([1]; 0.25 μM Ranpirnase (group 1C)): 22.5 | Ocular irritation class, Day 3 ([1]; 0.25 μM Ranpirnase (group 1C)): M1 (2.6-15.0, Minimally Irritating (M1)) | Ocular irritation class, Day 9 ([1]; 0.25 μM Ranpirnase (group 1C)): M2 (15.1-25.0, Mildly Irritating (M2)) | Ocular irritation MMTS score, Day 3 ([1]; 2.5 μM Ranpirnase (group 1B)): 14.6 | Ocular irritation MMTS score, Day 9 ([1]; 2.5 μM Ranpirnase (group 1B)): 60.7 | Ocular irritation class, Day 3 ([1]; 2.5 μM Ranpirnase (group 1B)): M1 (2.6-15.0, Minimally Irritating (M1)) | Ocular irritation class, Day 9 ([1]; 2.5 μM Ranpirnase (group 1B)): S (50.1-80.0, Severely Irritating (S)) | Ocular irritation MMTS score, Day 3 ([1]; 25 μM Ranpirnase (group 1A)): 22.0 | Ocular irritation MMTS score, Day 9 ([1]; 25 μM Ranpirnase (group 1A)): 85.0 | Ocular irritation class, Day 3 ([1]; 25 μM Ranpirnase (group 1A)): M2 (15.1-25.0, Mildly Irritating (M2)) | Ocular irritation class, Day 9 ([1]; 25 μM Ranpirnase (group 1A)): E (80.1-100.0, Extremely Irritating (E)) | Ocular toxicity compared to Saline and CDV controls ([1]; 25, 2.5 and 0.25 μM Ranpirnase, Ad5/NZW rabbit ocular model): dose dependent ocular toxicity | % cytotoxicity, Mean (A549 cells; 0.001 μM, second experiment): 3.2% | % cytotoxicity (A549 cells; 0.001 μM, second experiment, single assays 1-3, 0.001 µM): 5.7% and 2.3% and 1.6% | % cytotoxicity, Mean (A549 cells; 0.01 μM, second experiment): 7.4% | % cytotoxicity (A549 cells; 0.01 μM, second experiment, single assays 1-3, 0.01 µM): 8.6% and 11.7% and 7.9% | % cytotoxicity, Mean (A549 cells; 0.1 μM, second experiment): 5.8% | % cytotoxicity (A549 cells; 0.1 μM, second experiment, single assays 1-3, 0.1 µM): 6.0% and 5.3% and 6.1% | % cytotoxicity (A549 cells; 1.0 μM, first experiment, single assays 1-3, 1 µM): 60.9% and 61.3% and 63.7% | % cytotoxicity (A549 cells; 1.0 μM, second experiment, single assays 1-3, 1 µM): 11.1% and 14.6% and 18.1% | % cytotoxicity (A549 cells; 10 μM, first experiment, single assays 1-3, 10 µM): 65.7% and 66.5% and 67.1% | % cytotoxicity (A549 cells; 10 μM, second experiment, single assays 1-3, 10 µM): 29.1% and 32.7% and 37.3% | % cytotoxicity (A549 cells; 50 μM, first experiment, single assays 1-3, 50 µM): 75.1% and 74.0% | % cytotoxicity (A549 cells; 50 μM, second experiment, single assays 1-3, 50 µM): 86.7% and 86.4%
